Results reported in CN111363035A (DONGGUAN PENGZHI BIOTECHNOLOGY CO LTD, dated 2020).

Target: T1, 重组FABP蛋白(自产，140618) (human, UniProt P05413 1-133, limits assumed)
T1 construct: The coated protein is only called 'recombinant FABP protein'; also called 心型脂肪酸结合蛋白; H-FABP
Assay: indirect ELISA, recombinant FABP protein coated, CHO transient supernatant, goat anti-mouse IgG-HRP

T1 sequence (P05413 whole entry): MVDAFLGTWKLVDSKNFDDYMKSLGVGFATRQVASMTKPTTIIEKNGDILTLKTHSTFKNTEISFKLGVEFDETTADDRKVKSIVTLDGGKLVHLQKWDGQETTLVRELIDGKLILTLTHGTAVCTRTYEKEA

- OD450 (reference 630 nm) at 1000-fold dilution of the supernatant: > 1 OD
B1: Anti-FABP 8F3 重组抗体 (抗人心型脂肪酸结合蛋白的重组抗体) (antibody, V domains shown)
VH: QVQLQQPGADLVRPGASVKLSCKTSGYSFTGYFMNWVKQRPGQGLEWIGMIHASDSSTRLNQKFKDKATLTVDKSSTTVYMQFSSPTSEDSAVYYCARGIRDFAYWGQGTLVTVSA
VL: DIVMTQSQKFMSTSVGDRVSITCKASNNIASSVAWYQLRPGQSPKALIYSPTYRYSGIPDRFTGSGSGTDFTLTISNVQSEDLAEYFCQQYNSYPLSFGSGTKLEIK
